Measured values as given in US20160114017A1 (UNIVERSITY OF PITTSBURGH OF THE COMMONWEALTH SYSTEM OF …, published 2016).

Target: T1, HLA-A2 on the cell surface (HLA-A2 transfected T2 cell line; SNB19 glioma cells) (human)
T1 construct: whole, on cells; Class I MHC on cells; also called HLA-A*0201
Assay: T2 cell HLA-A2 stabilisation, flow cytometry, peptide 1 nM overnight
Procedure: The binding capability of these modified peptides was assessed using an HLA-A2 transfected T2 cell line. Aliquots of T2 cells were incubated with modified peptides or IL-13Rα2₃₄₅₋₃₅₃ at 1 nM overnight, and then examined for the surface expression levels of HLA-A2 on T2 cells by flow cytometry. Since stable binding of HLA-A2 with peptide epitopes further stabilizes the surface expression of HLA-A2 (Francini et al., 2002; Alves et al., 2003), quantitative expression levels of HLA-A2, which is indicated by Mean Fluorescence Intensity (MFI) in Table 1, correlate with the binding affinity of the peptide-epitopes that are co-incubated with the T2 cells.

Binder	Binding Index (MFI)
WLPFGFILI (Synthetic peptide incubated with T2 cells at 1 nM overnight; also called IL-13Rα345-353; wild type IL-13Rα2345-353) [Native IL-13Rα2345-353 peptide]	237
WLPFGFILV (Synthetic modified peptide; also called IL-13Rα2345-9V) [IL-13Rα2-V9 peptide (I replaced with V at P9)]	376
